The target in assay [1] is murine IL-2 receptor βγc heterodimer (mIL-2Rβγc) (mouse) (UniProt P16297). Nature of the assay: SPR; mIL-2Rγ immobilised, saturating mIL-2Rβ in solution. On the technique in general: Surface plasmon resonance follows binding to a sensor surface in real time, without labels.
Assay [2] addresses murine IL-2Rβ (mIL-2Rβ) (mouse) (UniProt P16297). The assay can be described thus: SPR; mIL-2Rβ immobilised.
Assay [3] addresses human IL-2 receptor βγc heterodimer (hIL-2Rβγc) (human) (UniProt P14784). The assay can be described thus: SPR; hIL-2Rγ immobilised, saturating hIL-2Rβ in solution.
Assay [4] deals with human IL-2Rβγc on YT-1 human natural killer cells (human) (UniProt P14784). The assay can be described thus: cell-based or functional assay.
The target of assay [5] is human IL-2Rβ (hIL-2Rβ) (human) (UniProt P14784). The assay can be described thus: SPR; hIL-2Rβ immobilised.
Assay [6] deals with IL-2Rβγc (species not stated). The assay can be described thus: biolayer interferometry. A general note: BLI is a label-free optical method that tracks binding on a fibre tip over time.
Assay [7] concerns the target murine IL-2 receptor βγc heterodimer (mIL-2Rβγc) (mouse) (UniProt P16297). The assay can be described thus: biolayer interferometry; biotin-mIL2Gamma on streptavidin sensor, MSA-Neo2 titrated 729 to 1 nM with saturating mIL2Beta.

Chain of IL-2Rβγc (species not stated) (P14784 whole entry, chain 1 of 2): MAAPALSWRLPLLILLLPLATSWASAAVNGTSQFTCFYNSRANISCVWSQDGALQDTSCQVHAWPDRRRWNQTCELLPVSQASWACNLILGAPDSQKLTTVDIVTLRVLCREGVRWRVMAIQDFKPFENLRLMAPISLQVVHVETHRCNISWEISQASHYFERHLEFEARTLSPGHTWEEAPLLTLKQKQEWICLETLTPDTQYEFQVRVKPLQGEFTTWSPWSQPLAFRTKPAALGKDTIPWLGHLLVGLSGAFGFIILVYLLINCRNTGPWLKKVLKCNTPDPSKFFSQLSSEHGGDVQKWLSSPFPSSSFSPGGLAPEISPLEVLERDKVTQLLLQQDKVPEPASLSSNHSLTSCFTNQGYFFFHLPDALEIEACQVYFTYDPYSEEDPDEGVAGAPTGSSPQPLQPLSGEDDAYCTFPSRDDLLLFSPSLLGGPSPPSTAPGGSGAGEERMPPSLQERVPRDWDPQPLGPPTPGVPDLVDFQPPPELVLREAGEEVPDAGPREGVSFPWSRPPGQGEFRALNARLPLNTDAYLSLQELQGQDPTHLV
Chain of IL-2Rβγc (species not stated) (P31785 whole entry, chain 2 of 2, further chain): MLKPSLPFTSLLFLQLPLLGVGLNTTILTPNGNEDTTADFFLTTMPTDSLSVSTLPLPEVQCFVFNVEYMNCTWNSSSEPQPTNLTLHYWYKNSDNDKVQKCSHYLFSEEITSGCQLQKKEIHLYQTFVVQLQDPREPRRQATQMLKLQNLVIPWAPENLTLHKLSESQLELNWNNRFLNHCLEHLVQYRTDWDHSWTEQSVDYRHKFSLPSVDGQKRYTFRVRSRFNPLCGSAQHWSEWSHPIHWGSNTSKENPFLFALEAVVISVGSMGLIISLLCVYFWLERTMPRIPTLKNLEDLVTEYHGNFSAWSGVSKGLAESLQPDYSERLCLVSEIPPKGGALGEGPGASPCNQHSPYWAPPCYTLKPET
Chain of human IL-2Rβγc on YT-1 human natural killer cells (human) (P14784 27-551): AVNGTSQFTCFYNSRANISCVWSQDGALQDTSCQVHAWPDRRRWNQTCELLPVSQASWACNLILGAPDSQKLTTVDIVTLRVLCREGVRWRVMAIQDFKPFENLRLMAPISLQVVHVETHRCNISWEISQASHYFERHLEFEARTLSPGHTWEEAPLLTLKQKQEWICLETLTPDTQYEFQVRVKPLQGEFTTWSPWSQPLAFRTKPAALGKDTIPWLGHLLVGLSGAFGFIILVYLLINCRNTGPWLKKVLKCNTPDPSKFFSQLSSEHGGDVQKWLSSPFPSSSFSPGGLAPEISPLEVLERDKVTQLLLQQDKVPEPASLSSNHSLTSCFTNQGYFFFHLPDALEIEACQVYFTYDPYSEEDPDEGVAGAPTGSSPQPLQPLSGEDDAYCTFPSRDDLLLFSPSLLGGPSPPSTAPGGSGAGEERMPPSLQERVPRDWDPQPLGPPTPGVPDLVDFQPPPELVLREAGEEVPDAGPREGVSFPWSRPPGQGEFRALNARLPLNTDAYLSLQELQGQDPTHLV
Chain of human IL-2Rβ (hIL-2Rβ) (human) (P14784 other isoform, or with tags, fused parts or gaps): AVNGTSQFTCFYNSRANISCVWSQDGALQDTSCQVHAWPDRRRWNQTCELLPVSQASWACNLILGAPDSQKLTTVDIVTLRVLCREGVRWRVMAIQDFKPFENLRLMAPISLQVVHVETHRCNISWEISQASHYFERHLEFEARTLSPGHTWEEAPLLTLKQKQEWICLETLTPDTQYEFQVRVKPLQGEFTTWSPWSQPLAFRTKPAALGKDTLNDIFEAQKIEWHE
Chain of human IL-2 receptor βγc heterodimer (hIL-2Rβγc) (human) (P14784 27-240, one chain of several): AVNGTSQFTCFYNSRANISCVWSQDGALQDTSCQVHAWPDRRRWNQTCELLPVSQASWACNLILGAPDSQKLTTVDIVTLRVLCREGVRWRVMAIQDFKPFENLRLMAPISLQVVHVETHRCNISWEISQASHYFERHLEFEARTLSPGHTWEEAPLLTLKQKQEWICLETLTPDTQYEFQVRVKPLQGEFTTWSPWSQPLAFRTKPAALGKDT

In the case of “Neoleukin-2/15 (i.e. G2_neo2_40_1F_seq36_S11) (designed binder)”, the Kd – broadly, the equilibrium constant for the complex coming apart – in assay [1] came to 38.4 nM; in assay [2], 16.1 nM.

Regarding “human IL-2 (hIL-2) (from UniProt P60568 21-153) (ligand)”, the Kd in assay [1] amounted to 492 nM; in assay [2], 8110 nM.

In the case of Super-2/Superkine (PDB:3QAZ) (ligand), the Kd in assay [3] was 301 nM; in assay [1] it was 312 nM; in assay [2] it was 214 nM; in assay [5], 2 nM. The molecule further came in with an EC50 (CD25-) pSTAT5, human NK (YT, CD25-) cells in assay [4] of 70 pM.

B1: G2_neo2_40_1F_seq40 (designed binder)
chain: PEKKRQLLAEHALLDALMILNIIRTNSDNTESKLEDYISNLKVILEEIARLMESLGLSDEAEKAKEAMRLADKAGSTASEEEKKEAMNRVITWAQSWIFN
Turning to B1, the Kd in assay [1] was determined as 69.2 nM.

B2: G2_neo2_40_1F_seq26 (designed binder)
chain: TKKKYQLLIEHALLDALMILNLWSESNEKLNRIITTMQSWIFTGTYDPDKAEELEKLAKEIEDEARERGIDTEDYMSNLRVILKELS
Take B2: the Kd in assay [1] came out at 27.8 nM.

B3: G2_neo2_40_1F_seq29 (designed binder)
chain: EDYYSNLKVILEELAREMERNGLSDKAEEWRQWKKIVERIRQIRSNNSDLNEAKELLNRLITYIQSQIFEISERIRETDQEKKEESWKKWQLLLEHALLDVLMLLND
Take B3: the Kd in assay [1] came to 38.2 nM.

B4: G2_neo2_40_1F_seq04 (designed binder)
chain: TTKKIQLLVEHALLDALMILNLSSESNEKLNRIITTLQSWIFRGEIDPDRARELAKLLEEIREEMRKRGIDTEDYVSNMIVIIRELA
As to B4, the Kd in assay [1] turned out to be 80 nM.

B5: Neoleukin-2/15 terminal disulfide-stapled variant (CNSN and NFQC added at the termini) (designed binder)
chain: CNSNKKKIQLHAEHALYDALMILNIVKTNSPPAEEKLEDYAFNFELILEEIARLFESGDQKDEAEKAKRMKEWMKRIKTTASEDEQEEMANAIITILQSWIFNFQC
modifications: disulfide bond between the added N-terminal and C-terminal cysteines
For the molecule B5, in assay [6], the Kd is 1.8 nM.

B6: mouse IL-2 (mIL-2) (ligand, UniProt P04351 21-169, looked up)
chain: APTSSSTSSSTAEAQQQQQQQQQQQQHLEQLLMDLQELLSRMENYRNLKLPRMLTFKFYLPKQATELKDLQCLEDELGPLRHVLDLTQSKSFQLEDAENFISNIRVTVVKLKGSDNTFECQFDDESATVVDFLRRWIAFCQSIISTSPQ
For B6, the Kd amounted to 126 nM in assay [1] and 1500 nM in assay [2].

B7: G1_neo2_40_1F (designed binder)
chain: STKKTQLLAEHALLDALMMLNLLPEPNEKLNRIITTMQSWIFTGKIDGDGAQELAKEVEELEQEHEKRGIDVEDYASNLKVILLELA
B7: the Kd in assay [1] was found to be 7.9 nM; in assay [2], 486 nM.

B8: G1_neo2_40_1F_H2 (designed binder)
chain: STKKTQLLLEHALLDALHMRRNLPEPNEKLSRIITTMQSWIFTGKIDGDGAQELAKEVEELEQEHEKRGRDVEDDASNLKVILLELA
With B8, the results for the Kd in assay [1] and in assay [2] were 964 nM and 68300 nM, respectively.

B9: G1_neo2_40_1F_H4 (designed binder)
chain: STKKTQLLLEHALLDALHMSRELPEPNEKLNRIITDMQSWIFTGKIDGDGAQDLAKEVEELEQEHEKRGGDVEDYASNLKVILLELA
As to B9, the Kd was 392 nM in assay [1] and 10100 nM in assay [2].

B10: G1_neo2_40_1F_H3 (designed binder)
chain: STKKTQLLIEHALLDALNMRKKLPEPNEKLSRIITDMQSWIFTGKIDGDGAQQLAKEVEELEQEHEKRGGDVEDYASNLKVILLELA
For B10, the Kd in assay [1] came out at 3830 nM.

B11: G1_neo2_40_1F_H1 (designed binder)
chain: STKKTQLLIEHALLDALDMSRNLPEPNEKLSRIITTMQSWIFTGKIDGDGAQQLAKEVEELEQEHEKRGEDVEDEASNLKVILLELA
Consider B11, for which the Kd in assay [1] came to 2650 nM; in assay [2], 6800 nM.

B12: G1_neo2_40_1F_H5 (designed binder)
chain: STKKTQLLIEHALLDALHMSRKLPEPNEKLSRIITTMQSWIFTGKIDGDGAQHLAKEVEELEQEHEKRGGEVEDEASNLKVILLELA
For B12, the results for the Kd in assay [1] and in assay [2] were 5120 nM and 45300 nM, respectively.

B13: G2_neo2_40_1F_seq30 (designed binder)
chain: PEKKRQLLLEHILLDALMLLNLLETNPQNTESKFEDYISNAEVIAEELAKLMESLGLSDEAEKFKKIKQWLREVWRIWSSTNWSTLEDKARELLNRIITTIQSQIFY
Turning to B13, the Kd in assay [1] came out at 925 nM.

B14: G2_neo2_40_1F_seq36 (designed binder)
chain: PKKKIQLLAEHALLDALMILNIVKTNSQNAEEKLEDYASNVEVILEEIARLMESGDQKDEAEKAKRMKEWMKRIKTTASEDEQEEMANRIITLLQSWIFS
For B14, the Kd stood at 568 nM in assay [1] and 2430 nM in assay [2].

B15: G2_neo2_40_1F_seq12 (designed binder)
chain: TEKKLQLLVEHALLDALMILNLWSESNEKLNRIITTMQSWIFTGRIDPDKAEELAKLVEELREEARERGIDTEDYVSNLKVILKELS
In the case of B15, the Kd in assay [1] came to 39.1 nM.

B16: G1_neo2_40_1F_M1 (designed binder)
chain: STEKTQLAAEHALRDALMLKHLLNEPNEKLARIITTMQSWQFTGKIDGDGAQELAKEVEELQQEHEVRGIDVEDYASNLKVILLHLA
With B16, the Kd in assay [1] came to 4.3 nM; in assay [2] it was 214 nM.

B17: G1_neo2_40_1F_M3 (designed binder)
chain: STEKTQHAAEDALRDALMLRNLLNEPNEKLARIITTMQSWQFTEKIDGDGAQELAKEVEELQQEHEVRGIDVEDYASNLKVILLQLA
With B17, the Kd in assay [1] is 64.8 nM; in assay [2], 402 nM.

B18: G1_neo2_40_1F_M2 (designed binder)
chain: STKNTQLAAEDALLDALMLRNLLNEPNEKLARIITTMQSWQFTEKIDGDGAQELAKEVEELQQEHEERGIDVEDYASNLKVILLQLA
Take B18: the Kd in assay [1] came to 886 nM; in assay [2], 2600 nM.

B19: G2_neo2_40_1F_seq16 (designed binder)
chain: TKKKIQLLVEHALLDALMILNLSSKSNEKLNRIITTMQSWIFNGTIDPDRARELAKLVEEIRDEMEKNGIDTEDYVSNLKVILEELA
B19 came in with a Kd in assay [1] of 71.5 nM.

B20: Mouse Serum Albumin (MSA) fusion to Neoleukin-2/15 (protein)
chain: GSDGGSHHHHHHGSGSENLYFQGSGEAHKSEIAHRYNDLGEQHFKGLVLIAFSQYLQKCSYDEHAKLVQEVTDFAKTCVADESAANCDKSLHTLFGDKLCAIPNLRENYGELADCCTKQEPERNECFLQHKDDNPSLPPFERPEAEAMCTSFKENPTTFMGHYLHEVARRHPYFYAPELLYYAEQYNEILTQCCAEADKESCLTPKLDGVKEKALVSSVRQRMKCSSMQKFGERAFKAWAVARLSQTFPNADFAEITKLATDLTKVNKECCHGDLLECADDRAELAKYMCENQATISSKLQTCCDKPLLKKAHCLSEVEHDTMPADLPAIAADFVEDQEVCKNYAEAKDVFLGTFLYEYSRRHPDYSVSLLLRLAKKYEATLEKCCAEANPPACYGTVLAEFQPLVEEPKNLVKTNCDLYEKLGEYGFQNAILVRYTQKAPQVSTPTLVEAARNLGRVGTKCCTLPEDQRLPCVEDYLSAILNRVCLLHEKTPVSEHVTKCCSGSLVERRPCFSALTVDETYVPKEFKAETFTFHSDICTLPEKEKQIKKQTALAELVKHKPKATAEQLKTVMDDFAQFLDTCCKAADKDTCFSTEGPNLVTRCKDALAGGGSGGSGGGSGGSGSGPKKKIQLHAEHALYDALMILNIVKTNSPPAEEKLEDYAFNFELILEEIARLFESGDQKDEAEKAKRMKEWMKRIKTTASEDEQEEMANAIITILQSWIFS
With B20, the Kd in assay [7] is 33.5 nM.

B21: Neoleukin-2/15 internal disulfide-stapled variant (disulfide between residues 38 and 75) (designed binder)
chain: PKKKIQLHAEHALYDALMILNIVKTNSPPAEEKLEDYCFNFELILEEIARLFESGDQKDEAEKAKRMKEWMKRICTTASEDEQEEMANAIITILQSWIFS
modifications: disulfide bond between residues 38 and 75
In turn, B21 gave a Kd in assay [6] of 1.3 nM.

B22: G2_neo2_40_1F_seq27 (designed binder)
chain: TKKKAQLLAEHALLDALMLLNLSSESNERLNRIITWLQSIIFTGTYDPDMVKEAVKLADEIEDEMRKRGIDTEDYVSNLRVILQELA
The molecule B22 registered a Kd in assay [1] of 13.6 nM.

These data come from patent publication US20200317744A1 (published 2020).
